{"source": "patent US20250092426", "about": "“CAS ENDONUCLEASES AND RELATED METHODS” (Flagship Pioneering Innovations VII, LLC, published 2025)", "biological_target": "T1, CasEnd-36 (synthetic construct)", "T1 chain": "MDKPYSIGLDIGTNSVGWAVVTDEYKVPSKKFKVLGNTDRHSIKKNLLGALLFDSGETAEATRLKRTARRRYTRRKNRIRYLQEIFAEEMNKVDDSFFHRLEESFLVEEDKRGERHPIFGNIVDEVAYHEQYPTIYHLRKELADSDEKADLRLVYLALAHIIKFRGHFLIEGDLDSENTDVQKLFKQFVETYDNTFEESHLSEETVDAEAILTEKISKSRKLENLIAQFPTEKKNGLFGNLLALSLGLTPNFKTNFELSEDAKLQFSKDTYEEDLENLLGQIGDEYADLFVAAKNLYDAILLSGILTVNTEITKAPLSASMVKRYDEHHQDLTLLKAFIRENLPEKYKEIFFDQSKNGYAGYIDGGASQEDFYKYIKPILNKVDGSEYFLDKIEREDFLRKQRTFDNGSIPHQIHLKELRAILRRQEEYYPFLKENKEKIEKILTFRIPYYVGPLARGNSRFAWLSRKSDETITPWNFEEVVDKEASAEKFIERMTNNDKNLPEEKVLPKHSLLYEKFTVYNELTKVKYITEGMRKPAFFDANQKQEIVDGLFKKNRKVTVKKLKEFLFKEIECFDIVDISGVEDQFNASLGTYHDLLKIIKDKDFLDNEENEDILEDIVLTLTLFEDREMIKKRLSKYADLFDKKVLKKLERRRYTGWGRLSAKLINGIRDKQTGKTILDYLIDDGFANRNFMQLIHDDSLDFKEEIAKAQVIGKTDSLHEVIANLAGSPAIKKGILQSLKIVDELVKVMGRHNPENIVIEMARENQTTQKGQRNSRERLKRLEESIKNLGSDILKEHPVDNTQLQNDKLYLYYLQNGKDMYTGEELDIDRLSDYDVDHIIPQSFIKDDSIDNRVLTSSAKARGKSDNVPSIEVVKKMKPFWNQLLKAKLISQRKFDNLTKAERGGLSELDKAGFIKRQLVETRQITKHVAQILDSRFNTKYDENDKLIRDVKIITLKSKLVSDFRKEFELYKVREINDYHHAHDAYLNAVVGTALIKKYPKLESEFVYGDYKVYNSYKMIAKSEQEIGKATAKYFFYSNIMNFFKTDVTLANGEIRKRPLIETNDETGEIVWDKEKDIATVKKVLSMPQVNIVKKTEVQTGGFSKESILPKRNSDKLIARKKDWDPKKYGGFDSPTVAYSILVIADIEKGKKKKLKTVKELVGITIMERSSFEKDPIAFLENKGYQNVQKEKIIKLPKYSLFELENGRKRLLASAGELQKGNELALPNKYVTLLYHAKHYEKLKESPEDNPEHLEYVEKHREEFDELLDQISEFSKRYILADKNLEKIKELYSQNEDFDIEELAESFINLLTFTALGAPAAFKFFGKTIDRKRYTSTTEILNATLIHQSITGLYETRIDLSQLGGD", "assay": "cell_activity; +++; HEK293T; PAM not stated", "in_short": "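Editing activity was scored as the fraction of GFP+ cells on day 4 by flow cytometry. BFP-expressing HEK293T cells (250,000) received by nucleofection 200 ng plasmid for the RT-Cas fusion protein and 200 ng template RNA plasmid designed to convert BFP to GFP.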"}
{"binder": "BFP-to-GFP template RNA ; BFP reporter protospacer (ssRNA ; dsDNA) RNA: GCCGAAGCACUGCACGCCGUGUUUUAGAGCUAGAAAUAGCAAGUUAAAAUAAGGCUAGUCCGUUAUCAACUUGAAAAAGUGGCACCGAGUCGGUGCACCCUGACGUACGGCGUGCAGUGCUU DNA 1: GCCGAAGCACTGCACGCCGT DNA 2: ACGGCGTGCAGTGCTTCGGC", "values": [{"measurement": "activity", "value": "≥ 100 % of reference"}]}
